Biological target: full-length WT JR-FL (gp160) Env (JR-FL WT) (HIV-1 isolate JR-FL (subtype B), UniProt P20871 32-848)
Experiment: cell-based or functional assay

B1: MAb 2G12 (antibody, V domains shown)
VH: EVQLVESGGGLVKAGGSLILSCGVSNFRISAHTMNWVRRVPGGGLEWVASISTSSTYRDYADAVKGRFTVSRDDLEDFVYLQMHKMRVEDTAIYYCARKGSDRLSDNDPFDAWGPGTVVTVSP
VL: VVMTQSPSTLSASVGDTITITCRASQSIETWLAWYQQKPGKAPKLLIYKASTLKTGVPSRFSGSGSGTEFTLTISGLQFDDFATYHCQHYAGYSATFGQGTRVEIKR
For B1, the “neutralization of Env-pseudotyped virus infectivity (U87.CD4.CCR5 cells), mean IC50” value was 1.6 mg/L.
